Measured values published in patent US20130310442.

Columns and labels:
[1] = biological target: biotinylated human D-SDF-1 (Homo sapiens) (UniProt P48061); test: pulldown; settings: single Kd stated after naming 193-C2-002 and 193-G2-012
[2] = biological target: human SDF-1alpha (CXCL12) (Homo sapiens) (UniProt P48061); test: SPR; settings: L-RNA; 5'-40 kDa PEG; Biacore 2000, 37 C
Sequence of human SDF-1alpha (CXCL12) (Homo sapiens) (P48061 22-89): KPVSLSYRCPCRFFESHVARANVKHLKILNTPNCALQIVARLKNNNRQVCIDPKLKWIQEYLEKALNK

Sequence of biotinylated human D-SDF-1 (Homo sapiens) (P48061 22-92): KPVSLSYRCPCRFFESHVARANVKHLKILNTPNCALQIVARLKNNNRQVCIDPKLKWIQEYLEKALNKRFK

Row | Sequence | Kd [1] | Kd [2]
1 | GCGUGGUGUGAUCUAGAUGUAGUGGCUGAUCCUAGUCAGGUACGC [193-C2-002 (D)] | 0.3 nM | –
2 | GCGUGGUGUGAUCUAGAUGUAUUGGCUGAUCCUAGUCAGGUACGC [NOX-A12 (193-G2-012-5'-PEG)] | – | 0.2 nM
